In US20250057840:

Experiments:
[1] = target: myc-tagged MAGI1 deletion of GUK-WW domains (murine, pCDNA3.1) (UniProt Q6RHR9)
[2] = target: GFP-MAGI1 Y373F (human MAGI1c-Y373F-GFP) (UniProt Q96QZ7)
[3] = target: myc-tagged MAGI1 deletion of WW domain (murine, pCDNA3.1) (UniProt Q6RHR9)
[4] = target: myc-tagged MAGI1 deletion of GUK domain (murine, pCDNA3.1) (UniProt Q6RHR9)
[5] = target: GFP-tagged MAGI1 WT (human MAGI1c, pCMV6-AC-GFP-MAGI1c WT, Origene #RG212712) (UniProt Q96QZ7)
GFP-tagged MAGI1 WT (human MAGI1c, pCMV6-AC-GFP-MAGI1c WT, Origene #RG212712), sequence (Q96QZ7 other isoform, or with tags, fused parts or gaps): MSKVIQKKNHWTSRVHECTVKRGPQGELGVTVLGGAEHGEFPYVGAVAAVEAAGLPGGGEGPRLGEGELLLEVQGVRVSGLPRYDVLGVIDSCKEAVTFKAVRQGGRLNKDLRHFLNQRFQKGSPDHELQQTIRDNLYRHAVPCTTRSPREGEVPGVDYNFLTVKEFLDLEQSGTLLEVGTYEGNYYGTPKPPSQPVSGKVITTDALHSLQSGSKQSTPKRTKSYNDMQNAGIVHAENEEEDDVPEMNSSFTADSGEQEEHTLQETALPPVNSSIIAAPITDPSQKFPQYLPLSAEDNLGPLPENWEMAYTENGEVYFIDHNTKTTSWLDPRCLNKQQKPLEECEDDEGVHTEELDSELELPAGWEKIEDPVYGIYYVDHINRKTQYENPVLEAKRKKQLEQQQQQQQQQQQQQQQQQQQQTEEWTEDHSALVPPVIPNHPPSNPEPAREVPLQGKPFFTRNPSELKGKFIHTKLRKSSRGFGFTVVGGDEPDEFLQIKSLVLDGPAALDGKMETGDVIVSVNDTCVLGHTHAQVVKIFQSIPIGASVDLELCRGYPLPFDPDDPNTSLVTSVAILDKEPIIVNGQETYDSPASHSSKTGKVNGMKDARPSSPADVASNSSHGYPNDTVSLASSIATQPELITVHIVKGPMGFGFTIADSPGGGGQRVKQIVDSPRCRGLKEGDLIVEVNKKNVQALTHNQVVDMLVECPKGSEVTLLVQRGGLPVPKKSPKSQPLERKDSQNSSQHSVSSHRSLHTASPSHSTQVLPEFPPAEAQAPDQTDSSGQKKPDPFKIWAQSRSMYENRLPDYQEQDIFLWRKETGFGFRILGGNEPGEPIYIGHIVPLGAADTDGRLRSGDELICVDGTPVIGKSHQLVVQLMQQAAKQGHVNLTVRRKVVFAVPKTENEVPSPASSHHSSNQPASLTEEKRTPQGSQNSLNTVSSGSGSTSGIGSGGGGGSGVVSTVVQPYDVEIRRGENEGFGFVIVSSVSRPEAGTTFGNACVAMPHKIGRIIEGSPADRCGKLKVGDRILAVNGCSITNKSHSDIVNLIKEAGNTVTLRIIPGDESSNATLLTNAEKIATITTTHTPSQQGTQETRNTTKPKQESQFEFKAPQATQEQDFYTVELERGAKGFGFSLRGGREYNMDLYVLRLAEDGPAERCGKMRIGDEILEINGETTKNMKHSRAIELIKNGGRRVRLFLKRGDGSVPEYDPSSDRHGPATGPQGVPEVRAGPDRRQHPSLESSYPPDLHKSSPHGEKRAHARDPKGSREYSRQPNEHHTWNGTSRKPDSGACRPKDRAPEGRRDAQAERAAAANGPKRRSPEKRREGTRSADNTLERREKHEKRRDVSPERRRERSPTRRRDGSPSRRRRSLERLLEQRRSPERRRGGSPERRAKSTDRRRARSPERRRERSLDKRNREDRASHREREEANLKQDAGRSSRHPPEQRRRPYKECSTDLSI

GFP-MAGI1 Y373F (human MAGI1c-Y373F-GFP), sequence (Q96QZ7 other isoform, or with tags, fused parts or gaps Y373F Y373F): as the sequence (Q96QZ7 other isoform, or with tags, fused parts or gaps) above, with Y373F counted along it
myc-tagged MAGI1 deletion of GUK domain (murine, pCDNA3.1), sequence (Q6RHR9 other isoform, or with tags, fused parts or gaps): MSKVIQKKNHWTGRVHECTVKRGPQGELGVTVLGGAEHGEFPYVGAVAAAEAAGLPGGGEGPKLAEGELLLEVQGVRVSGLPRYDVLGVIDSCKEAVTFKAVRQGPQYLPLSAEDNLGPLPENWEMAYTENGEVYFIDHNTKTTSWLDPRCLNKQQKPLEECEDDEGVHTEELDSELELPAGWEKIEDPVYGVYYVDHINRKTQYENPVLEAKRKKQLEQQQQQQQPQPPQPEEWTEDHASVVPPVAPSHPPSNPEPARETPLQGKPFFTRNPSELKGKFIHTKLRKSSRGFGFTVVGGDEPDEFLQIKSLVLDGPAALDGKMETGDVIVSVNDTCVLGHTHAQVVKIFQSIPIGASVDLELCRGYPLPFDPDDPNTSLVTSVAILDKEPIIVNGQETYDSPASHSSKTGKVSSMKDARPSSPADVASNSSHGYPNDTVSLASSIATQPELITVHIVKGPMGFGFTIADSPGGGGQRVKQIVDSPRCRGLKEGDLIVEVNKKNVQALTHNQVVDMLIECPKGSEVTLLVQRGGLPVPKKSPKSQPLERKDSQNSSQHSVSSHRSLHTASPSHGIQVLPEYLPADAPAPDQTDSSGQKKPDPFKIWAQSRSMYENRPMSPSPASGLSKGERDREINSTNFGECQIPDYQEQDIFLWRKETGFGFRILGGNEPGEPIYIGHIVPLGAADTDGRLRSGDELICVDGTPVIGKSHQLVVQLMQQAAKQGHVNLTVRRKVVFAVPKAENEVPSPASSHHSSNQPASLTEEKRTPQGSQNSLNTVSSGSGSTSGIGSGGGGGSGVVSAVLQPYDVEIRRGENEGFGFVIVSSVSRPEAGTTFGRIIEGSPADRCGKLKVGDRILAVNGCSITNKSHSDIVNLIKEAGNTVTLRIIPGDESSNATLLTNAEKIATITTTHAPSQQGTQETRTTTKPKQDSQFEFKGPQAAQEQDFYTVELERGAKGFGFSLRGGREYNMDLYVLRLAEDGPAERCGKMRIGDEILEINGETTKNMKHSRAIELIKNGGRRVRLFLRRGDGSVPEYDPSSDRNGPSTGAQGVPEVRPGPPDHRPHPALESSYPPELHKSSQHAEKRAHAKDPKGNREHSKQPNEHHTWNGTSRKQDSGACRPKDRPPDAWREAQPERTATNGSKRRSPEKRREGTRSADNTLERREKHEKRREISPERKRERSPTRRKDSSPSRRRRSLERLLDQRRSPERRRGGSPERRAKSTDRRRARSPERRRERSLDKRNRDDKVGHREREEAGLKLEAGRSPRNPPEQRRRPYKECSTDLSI
myc-tagged MAGI1 deletion of WW domain (murine, pCDNA3.1), sequence (Q6RHR9 other isoform, or with tags, fused parts or gaps): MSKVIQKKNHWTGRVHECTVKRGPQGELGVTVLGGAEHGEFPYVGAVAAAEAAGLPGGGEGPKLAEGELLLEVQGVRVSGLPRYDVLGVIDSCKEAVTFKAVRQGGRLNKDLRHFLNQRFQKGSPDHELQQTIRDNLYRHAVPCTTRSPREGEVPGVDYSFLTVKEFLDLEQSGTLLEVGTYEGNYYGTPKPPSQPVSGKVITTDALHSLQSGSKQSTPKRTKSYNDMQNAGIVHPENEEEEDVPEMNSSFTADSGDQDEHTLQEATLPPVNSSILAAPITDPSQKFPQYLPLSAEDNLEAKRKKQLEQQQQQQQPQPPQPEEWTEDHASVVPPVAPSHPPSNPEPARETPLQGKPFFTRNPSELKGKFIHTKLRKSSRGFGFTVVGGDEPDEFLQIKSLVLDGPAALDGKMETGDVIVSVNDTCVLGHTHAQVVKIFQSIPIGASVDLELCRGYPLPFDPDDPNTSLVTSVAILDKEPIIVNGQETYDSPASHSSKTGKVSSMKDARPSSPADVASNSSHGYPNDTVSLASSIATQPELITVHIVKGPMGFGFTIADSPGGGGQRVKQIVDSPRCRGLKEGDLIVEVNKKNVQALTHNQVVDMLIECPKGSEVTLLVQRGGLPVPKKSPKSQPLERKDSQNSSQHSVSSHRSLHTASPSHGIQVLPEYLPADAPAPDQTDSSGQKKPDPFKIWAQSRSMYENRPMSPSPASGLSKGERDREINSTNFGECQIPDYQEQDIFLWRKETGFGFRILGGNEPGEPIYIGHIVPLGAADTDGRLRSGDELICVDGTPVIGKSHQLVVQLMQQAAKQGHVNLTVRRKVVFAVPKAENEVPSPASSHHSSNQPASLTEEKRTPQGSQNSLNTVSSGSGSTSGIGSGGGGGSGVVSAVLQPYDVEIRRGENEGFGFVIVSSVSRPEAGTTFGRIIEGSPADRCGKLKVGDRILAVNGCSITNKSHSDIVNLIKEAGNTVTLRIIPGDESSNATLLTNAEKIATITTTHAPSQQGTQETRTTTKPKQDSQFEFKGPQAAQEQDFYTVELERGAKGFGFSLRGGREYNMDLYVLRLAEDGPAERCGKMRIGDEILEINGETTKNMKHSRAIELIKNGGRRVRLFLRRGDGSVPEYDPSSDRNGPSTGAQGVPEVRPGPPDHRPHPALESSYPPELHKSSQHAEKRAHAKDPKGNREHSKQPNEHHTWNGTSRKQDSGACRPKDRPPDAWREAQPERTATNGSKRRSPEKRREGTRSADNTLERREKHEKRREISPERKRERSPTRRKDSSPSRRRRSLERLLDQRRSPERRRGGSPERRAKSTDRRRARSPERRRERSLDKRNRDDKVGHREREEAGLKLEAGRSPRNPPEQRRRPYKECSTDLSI

proto-oncogene tyrosine-protein kinase Src (SRC), wild type, expressed from pCMV SRC WT in 293T cells
Y373 phosphorylation (western blot with pMAGI1 Y373 antisera, 293T co-expression) [1]: Y373 phosphorylation was abolished when WW domain was absent but not GUK
phosphorylation of MAGI1 at Y373 (western blot with rabbit antisera against pMAGI1 Y373, 293T co-expression) [2]: co-expression of SRC and WT MAGI1 but not Y373F mutant resulted in strong phosphorylation of MAGI1 at Y373
Y373 phosphorylation (western blot with pMAGI1 Y373 antisera, 293T co-expression) [3]: Y373 phosphorylation was abolished when WW domain was absent but not GUK
Y373 phosphorylation (western blot with pMAGI1 Y373 antisera, 293T co-expression) [4]: Y373 phosphorylation was abolished when WW domain was absent but not GUK
phosphorylation of MAGI1 at Y373 (western blot with rabbit antisera against pMAGI1 Y373, 293T co-expression) [5]: co-expression of SRC and WT MAGI1 but not Y373F mutant resulted in strong phosphorylation of MAGI1 at Y373
